Experiment: yeast display, Sf9 membrane polyspecificity reagent, FACS + sequencing; frameworks hold sequencing errors
Procedure, shortened: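 Nanobodies from a synthetic yeast display library (Saccharomyces cerevisiae BJ5465), induced 36–48 hours with galactose, were stained 1 hour at 4 °C with 10% biotinylated, detergent-solubilized Sf9 membrane reagent, enriched on streptavidin microbeads, then FACS-sorted. Anti-HA (expression) and streptavidin (reagent binding) fluorescence set low and high (top ~1%) gates. Polyreactivity labels come from the gate of origin. Genes were colony-PCR amplified, MiSeq 2 × 250 sequenced and filtered by CDR length.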

| Sequence | polyreactivity (PSR sort gate) |
| --- | --- |
| QVQLQESGGGLVQAGGSLRLSCAASGSISGPHVMGWYRQAPGKEREFVAAINVGANTYYADNVKGRFTISRDNANNTVYLQMNSLKPEDTAVYYCAAVYYGDIGHEYWGQGTQVTVSC | low polyreactivity |
| QVQLVESGGGKVQAGGSLRLSCAASGFTFSNAMGWYRQAPGKERELVAAITRIGGSTFYADSVKGRFTISRDNAKNTVYLQLNSLKPEDTAVYSCAADYGLPLYEGYYWGQGTQVTVSS | low polyreactivity |
| QFQIVDSVGGLVQAGGSLRLSCAASGRTFSYYSLGWYREATGKERELVASIRKSGASTYYADSVKGRFTISRDNAKNTVYLQMNSLKPEDTAVYYCNTAGWSFYSGRYDYWGQGTQVTVSS | high polyreactivity |
| QVQLVESGGGLLQAGGSLRLSCAASGITFTGYAMGWYRQAPGKERELVAVISETGGSTYADSVKGRFTISRDNAKNTVYLQMNSLKPEDTAVYYCAARLWWPYSTAWAKMDYWGQGTQVTVSS | low polyreactivity |
| QVQLVESGGGLVQAGGSLRLSCAASGSTFYRYAMGWYRQAPGKERELVAAISKRGGSTYYADSVKGRFTISRDNAKNTVYLQMNSLKPEDTAVYYCNAVGYKGTTYDYWGQGTQVTVSS | high polyreactivity |
| QVQLVESGGGLVQAGGSLRLSCAASGFIKFYAMGWYRQAPGKERELVASISSGGRTNYADSVKGRFTISRDNAKNTVYLQMNSLKPEDTAVYYCAAIGWRTRSRFEYWGQGTQVTVSS | high polyreactivity |
| QVQLVESGGGLDQAGGSLRLSCAASGSIFEPYDMGWYRQAPGKERELVASISRGGSTYYADSVKGRFTISRDNAKNTVYLQMNSLKPEDTAVYYCAADPYYYSSGYYYWGQGTQVTVSS | low polyreactivity |
| QVQLVESGGGLVQAGGSLRLSCAASGRIFAGYALGWYRPAPGKERELVATSTRGGSTNYADSVKRPFTISRDNAKNTVYLQMNSLKPEDTAVYYCAAPYSSYKVRPYDYWGQGTQVTVSS | low polyreactivity |
| QVQLVESGGGLVQAGGSLRLSCDASGSIFFSYAMGWYRQAPGTEREFVAAINSDDASTYADSVKGRFTISRDNAKNTVYLQMNSLKPEDTAVYYCADSFLWSWYDYWGQGTQVTVSS | low polyreactivity |
| QVQLVESGGGLVQAGGSLRLSCAASGSIFAINAMGWYRQAPGKERELVARISWSGGRTYYADSVKVRFTISRDNAKNTVYLQMNSLKPEDTAVYYCAKRYYKSLNRDEFDSWGQGTQGTVSS | high polyreactivity |
| QVQLVESGGGLVQAGGSLRLSCAASGFIFKHNALGWYRQAPGKERELVAAISWSGDSTYYADSVKGRFTISRDNAKNTVYLQMNSLKPEDTAVYYCAAVRALRKVRDYYYWGQGTQVTVSS | high polyreactivity |
| QVQIVESGGGLVQAGGSLRLSCAASGRIFRRYVMGWYRPAPGKERELVAAITKSGTSTYYADSVKGRFTISRDNAKNTVYLQMNSLKPEDTAVYYCAAVPYQSKYPRFGYWGQGTQVTVSS | high polyreactivity |
| QVQIVESGGGLVQAGGSLSLTCAASGSIITSNDMGWYRQAPGKERELVAAISKSGGRTYYAYSVKGRFTISRENEKNTDYLQMNCLKQEYTAVYYCHAGIYGYGYNPSYDYWGQGTQVTLSS | high polyreactivity |
| QVQLVESGGGLVQAGGSLRLSCAASGSIFSLNAMGWYRQAPGKERELVAAINSGGTSTYYADSVKGRFTMSRDNAKNTVYLHMKSLKPEDTAVYYCAKRQRDYSSVFDVDYWGQGTQVTVSS | low polyreactivity |
| QVQLVESGGGLVQAGGSLRLSCAASGRIFNRYAMGLYSQAPGKERELVAAISYTGGRTYYADSVKGRFTISRDNAKNTVYLQRNCLTPEDTAVYYCNVYVIHWDFTTSSVRRFDYWGQGTQVNVSS | high polyreactivity |
| QVQLVESGGGLVQAGGSLRLSCAASGLICTPYAMGWYRQSPGKERELVAAISVSGGRTYYADSVKGRFTISRDNAKNTVYLQMNSLKREDTAVYYCAAALPYGYEYWGQGTQVTVSS | high polyreactivity |

| Sequence | polyreactivity (PSR sort gate) |
| --- | --- |
| QVQLVESGGGLVQAGGSLRLSCAASVFTFRGNAMGWYRQAPGKERELVAAITSSDDSTYYADSVKGRFTISRDNAKNTVYLQMNSLKPEDTAVYYCAAVANGYWTYEYWGQGTQVTVSS | low polyreactivity |
| QVQLVESGGGLVQAGGSLRLSCAASGSTFSAKTIGGYRQAPGKEMELVAGITITGDTYYADSVKGRFTISRDNAKNTVYLQMNSLKPEDTAVYYCAAAWYEPATQTGYFEFDYWGQGTQVTVSS | low polyreactivity |
| QVQLVESGGGLVQAGGSLRLSSAASGFILRWYAMGWYRQAPGKERELVAAISWSGGSTYYADSVKGRFTISRDNAKNTVYLQMNSLKPEDTAVYYCNAVNYRNKYDYWGQGTQVTVSS | high polyreactivity |
| QVQLVDSGGGLVQAGGILRLSCASSGITFPGYDMGWYRQAPGKERDLVARISRSGGSTYYADSVKGRFTISRDNAKNTVYLQMNSLKPEETAVYYCAAGAYRSGGYRFDYWGQGTQVTVSS | low polyreactivity |
| QVQLVESGGGLVQAGGSLRLSCAASGSTFFGYDMGWSRQAPGKERELVATINSGGSTYYADSVKGRFTISRDNAKNTVYLQMNSLKPADTAVYYCAARPSYLYPYDRTGEYDYWGQGTQVTVSS | high polyreactivity |
| QVQLVESGRGLVQAGGSLRLSCAASGSIFRRYAMGWYRQAPGKERELVAGITRSGGNTYYADSVKGRFTISRDNAKNTVYLQMNSLKPEDTAVYYCAARHRYNIRTYDAWGQGTQVTVSS | high polyreactivity |
| QVQLVESGGGLVQAGGSLRLSCAASGRIFYTYAMGWYRQAPGKERELVAAISSRTGSTYYADSVKGRFTISRDNAKNTVYLQMNSLKPEDTAVYYCNAYRLRYGYDYWGQGTQVTVSS | high polyreactivity |
| QVQLVESGGGLVQAGGSLRLSCAASGRIFAYYTMGWYRQAPGKERELVATISGSGASTYYADSVKGRFTISRDNAKNTDYLQMNSLKPEDTAVYYCAATRFYATIYDYWGQGTQVTVSS | high polyreactivity |
| QVQLVESGGGLVQAGGSLRLSCAASGSIFNTYAMGWYRQAPGKEREFVASISRSGGSTRYADSVKGRFTISRDNAKNTVYLQMNSLKPEDTAVYYCAARVPRGHVTYDYWGQGTQVTVSS | high polyreactivity |
| QVQLVESGGGLVQAGGSLPLSCAATGRTFSYNAMGSYRQAPAKETELVAAISSGGTTNYADSVKGRFTISRDNAKNTVYLQMNSVKPDDTAVYYCNADRLVWSFTDYGFSQYDYWGQGTQVTVSS | low polyreactivity |
| QVQLVESGGCLVQAGGSLRLSCAASGNTFRRNVMGWYRQAPGKERELVPAINRGGSTTYADSVKGRFTISRDNAMNTVYLQMNSLKPEDTAVYYCNAEKRGQSYRFDYWGQGSQVTVSS | high polyreactivity |
| QVQLVESGGGLVQAGGSLRLSCAASGFTFAVYVMGWYRQAPGKERELVATISFSVGSTYYADSVKGRFTISRDNAKNTVYLQMNSLKPEDTAVYDCNADPPPEYYPDKDNYWGQGTQVTVSS | low polyreactivity |
| QVQLEESGGGLVQAGGSLRLSCAASGSIFYDNVMGWSRQAPGKERELVAGITRGGSTNYADSVKGPFTISRDNAKNTVYLQMNSLKPEDTAVSYCAADGTYVWGSEEGNYWGQGTQVNVSS | low polyreactivity |
| QVQLVESGGGLVQAGRSLRLSCPASGRTVVYNSLGWYRQAPGKETEFVAAITRSRDSTYYADSVKGRFTISRDNASNPVYLEMNSLKPEDSAAYYCNAVSKRYWLMDYWGQGTQVTVSS | high polyreactivity |
| QVQLVESGGGLVQAGGSLRLSCAASGFTFWWYAMGWYRQAPGKERELVAAISSGGSTNYADSVKGRFTISRDNAKNTVYLQMNSLKPEDTAVYYCNKDYYGSPSSYYGYDYWGQGTQVTESS | high polyreactivity |
| QVQLVESGGGLVQAGGSLRLSCAASGRIFKRYAKGWYRQAPGKERELVAAISGSGGSTSYADSVKGRFTLSRDNAKNTVYLQMNSLKPEDTAVYYCNTTPRFIRSIGQGNYWVQGTQVTVSS | high polyreactivity |

— the nanobody polyreactivity screen of Harvey et al. (2022)
